Test results from patent publication US20220204610A1, “PROTEIN BINDERS FOR IRHOM2” (NEW YORK SOCIETY FOR THE RELIEF OF THE RUPTURED AND …, priority 2019, published 2022).

What was measured:
[1] = tested on: LPS-induced release of endogenous TNFα from human THP-1 macrophage cells; test: ELISA-based TNFα release assay with purified antibody (Example 11); assay type: cell-based; details: antibody at 10 μg/ml final; LPS 50 ng/ml, 2 hours
Procedure: In the following study, ELISA-based TNFα release assays were performed to verify the inhibitory effects of the purified antibody 4H8-E3 of the invention on LPS-induced release of endogenous TNFα from human THP-1 macrophage cells.
In brief, on day 1, Nunc black MaxiSorp® 96-well plates (Thermo Fisher Scientific, USA) were coated overnight with 100 μl per well of mouse anti-human TNFα capture antibody (provided as part of the DuoSet ELISA kit) at 4 μg/ml TBS at 4° C. On day 2, the capture antibody solution was removed and MaxiSorp® plates were blocked with 300 μl per well of TBS, 1% BSA at room temperature for 3 hours. […] Using an infinite M1000 PRO (Tecan Group, Switzerland) microplate reader, the fluorescence of each well was collected at an excitation wavelength of 435 nm and an emission wavelength of 555 nm.

human iRhom1 = test: Peptide binding ELISA, binding specificity (Example 10), iRhom1 peptides; details: antibody 3 μg/ml PBS; peptides coated at 10 μg/ml; normalized to IgM isotype control
Procedure: Another series of peptide binding ELISA experiments was conducted to address the specificity of the purified antibody 4H8-E3 of the invention, i.e. to question whether this antibody specifically recognizes peptides, in particular peptide 3, resembling the extracellular juxtamembrane region adjacent to the TMD1 of human iRhom2, or whether the antibody 4H8-E3 of the invention also binds to peptides reflecting the homologous region of the closely related family member human iRhom1.
In brief, on day 1, Nunc black MaxiSorp® 96-well plates (Thermo Fisher Scientific, USA) were coated overnight with 100 μl per well of single biotinylated peptides 1 to 4, Mix A consisting of peptides 1 to 4, single biotinylated peptides 1b to 4b, and Mix D consisting of peptides 1b to 4b at 10 μg/m1 PBS each (thus, the final concentration of each peptide in both mixes was 2.5 μg/m1) at 4° C. On day 2, peptide solutions were removed and MaxiSorp® plates were blocked with 300 μl per well of Pierce protein-free (TBS) blocking buffer (Thermo Fisher Scientific, USA) at room temperature for 1.5 hours. […] Using an infinite M1000 PRO (Tecan Group, Switzerland) microplate reader, the fluorescence of each well was collected at an excitation wavelength of 435 nm and an emission wavelength of 555 nm.

B1: 4H8-E3: Mouse IgM monoclonal antibody against the human iRhom2 juxtamembrane domain adjacent to TMD1; HC VD SEQ ID NO 33, LC VD SEQ ID NO 40 (antibody, V domains shown)
VH: EVQLQQSGPELVKPGASVKISCKASGYTFTDYYMNWVKQSHGKSLEWIGDINPNNGGTSYNQKFKGKATLTVDKSSNTAYMEFRSLTSEDSAVYYCARRGYYGVDYWGQGTTLTVSS
VL: NIVMTQSPKSMSMSVGERVTLNCKASENVGTYVSWYQQKPEQSPKLLIFGASNRYTGVPDRFIGSGFATDFTLTISSVQAEDLADYHCGQSYSYPYTFGGGTKLEIK
modifications: IgM constant regions; antibody sequence
For B1, the “inhibition of LPS-induced release of TNFα from THP-1 cells” value [1] was 62.6% and the “binding to Mix D or individually coated peptides 1b, 2b, 3b and 4b (homologous sequences of human iRhom1)” value (human iRhom1) was “does not bind at all”.
